Assay [1] addresses T1, recombinant human PAD4 (human, UniProt Q9UM07 1-663). Description: cell-based or functional assay.
In assay [2] the target is T1, recombinant human PAD4. Briefly: SPR 37 C, captured antibody, PAD4 analyte, 2 mM EDTA. As to the method:
(§1) For SPR measurements, either an anti-human capture surface or Protein A surface (Cytiva catalog #29127555) was used. Anti-human capture surface was prepared by immobilizing anti-human capture antibody (Cytiva catalog #29234600) onto flow cells of a CM5 or CM4 biosensor following the manufacturer's amine coupling protocol (Cytiva catalog #BR-1006-33). SPR experiments were conducted at 37° C. using HBS-P (150 mM NaCl, 10 mM HEPES, pH 7.6, 0.05% Tween-20) (TEKNOVA catalog #H8032) with additional 150 mM NaCl and 1 mM or 2 mM CaCl₂) (see Table 2) or 2 mM EDTA (see Table 3) as running buffer. Antibodies were diluted to 1.5 μg/mL in the running buffer, and were captured across active biosensor flow cells at 10 μL/min for 15 to 30 seconds. […] The association and dissociation of the antibodies with PAD4 were measured. One 30 second injection followed by one 15 second injection of 10 mM glycine pH 1.5 was used to regenerate the Protein A capture surface between assay cycles. For anti-human capture surface, two 30 second injections of 3 M MgCl₂ was used for regeneration. SPR measurements for mAb20 and mAb 13 SPR were done in the presence of 2 mM CaCl₂). The remaining antibodies were tested in the presence of 1 mM CaCl₂).
(§2) Rate constants kₒₙ and koff were derived from reference flow cell- and 0 nM blank-subtracted sensorgrams, and were fit to a 1:1 binding model in Biacore® Insight Evaluation software version 3.0.12.15655. Deviations from 1:1 binding model were observed, which may be caused by increased dimerization of PAD4 at higher concentrations. The equilibrium dissociation constant, KD, was calculated as the ratio of rate constants koff/kₒₙ for each PAD4 antibody. For those antibodies that were tested in multiple SPR experiments, the average value and standard deviation from two or three separate experiments are listed in Tables 2 and 3.

Assay [3] deals with T1, recombinant human PAD4. Description: SPR 37 C, captured antibody, PAD4 analyte, 1 mM CaCl2. On the procedure:
Their binding to human PAD4 was measured by Surface Plasmon Resonance (SPR). SPR measurements were performed with a Biacore® 8K, 8K+, or T200 instrument (Cytiva). The association rate constants, kₒₙ, dissociation rate constants, koff, and equilibrium dissociation constants, KD, of the antibodies with PAD4 were determined from these SPR measurements.
as §1
Rate constants kₒₙ and koff were derived from reference flow cell- and 0 nM blank-subtracted sensorgrams, and were fit to a 1:1 binding model in Biacore® Insight Evaluation software version 3.0.12.15655. Deviations from 1:1 binding model were observed, which may be caused by increased dimerization of PAD4 at higher concentrations. The equilibrium dissociation constant, KD, was calculated as the ratio of rate constants koff/kₒₙ for each PAD4 antibody.

In assay [4] the target is extracellular matrix (ECM) proteins. Briefly: ECM plate ELISA (Matrigel), 1 uM antibody, A450 over wells without sample.
For assay [5], the target named is T1, recombinant human PAD4. Briefly: SPR 37 C, captured antibody, PAD4 analyte, 1 mM CaCl2; 1 mM CaCl2, 37 C; mean of two or three experiments. As to the method:
as §1, with “SPR measurements for mAb20 and mAb 13 SPR were done in the presence of 2 mM CaCl₂). The remaining antibodies were tested in the presence of 1 mM CaCl₂).” left out
(§3) Rate constants kₒₙ and koff were derived from reference flow cell- and 0 nM blank-subtracted sensorgrams, and were fit to a 1:1 binding model in Biacore® Insight Evaluation software version 3.0.12.15655. […] The equilibrium dissociation constant, KD, was calculated as the ratio of rate constants koff/kₒₙ for each PAD4 antibody. […]

For assay [6], the target named is T2, mouse PAD4 (mouse, UniProt Q9Z183 1-666). Description: cell-based or functional assay.
In assay [7] the target is T2, mouse PAD4. Briefly: SPR 37 C, antibody on anti-murine capture surface, PAD4 analyte, 2 mM CaCl2. On the procedure: SPR Methods. In general, SPR methods were as described in Example 3 above with the following modifications. An anti-murine capture surface was used that was prepared by immobilizing anti-murine capture antibody (Cytiva catalog #BR100838) onto flow cells of a CM5 biosensor following the manufacturer's amine coupling protocol (Cytiva catalog #BR-1006-33). SPR experiments were conducted at 37° C. using HBS-P (150 mM NaCl, 10 mM HEPES, pH 7.6, 0.05% Tween-20) (TEKNOVA catalog #H8032) with additional 500 mM NaCl and 2 mM CaCl₂) as running buffer. Several concentrations of PAD4, from 0.8 nM to 150 nM were prepared using the running buffer. The association and dissociation of the antibodies with PAD4 were measured. Two 90 second injections of 10 mM glycine pH 1.7 was used to regenerate the anti-murine capture surface.

Assay [8] concerns the target T1, recombinant human PAD4. Briefly: cell-based or functional assay. The source holds these as a separate data set.
Assay [9] addresses T3, recombinant human GST-PAD4 fusion protein (human, UniProt Q9UM07 1-663).
T3 construct: not shown: GST tag
Briefly: BLI (BLITZ), GST-PAD4 on anti-GST biosensor. As to the method:
Affinity testing methods. Affinity of each antibody clone for a GST-PAD4 fusion protein was determined by Biolayer Interferometry (BLI) using a BLITZ instrument (Forte Bio, Menlo Park, California), using a biosensor chip (Anti-GST chip, Forte Bio, Cat. No. 18-5096). The biosensor was treated with citrate buffer, PBS, or PBS/Ca for 15 seconds; recombinant human GST-PAD4 was added on a drop holder for 80 seconds to prime the biosensor with PAD4; antibody was then added on the drop holder for 80 seconds to allow binding between antibody and the PAD4; PBS/PBS-Ca was added on the drop holder for 60 seconds to remove unbound antibody. The association rate constants, kₒₙ, dissociation rate constants, koff, and equilibrium dissociation constants, KD, were determined using BLITZ Pro Software, version 1.2.0.49.

In assay [10] the target is T1, recombinant human PAD4. Briefly: SPR 37 C, captured antibody, PAD4 analyte, 2 mM CaCl2. On the procedure: as §1, §2
A further assay deals with T4, N-His-TVMV-PAD4 (human, UniProt Q9UM07 1-663).
T4 construct: E. coli expressed; used for the cryo-EM complex with clone 13 Fab, seen as a 2:2 assembly; also called Human PAD4 (1-663); full-length PAD4 construct with cleavable N-terminal his tag
T4 chain: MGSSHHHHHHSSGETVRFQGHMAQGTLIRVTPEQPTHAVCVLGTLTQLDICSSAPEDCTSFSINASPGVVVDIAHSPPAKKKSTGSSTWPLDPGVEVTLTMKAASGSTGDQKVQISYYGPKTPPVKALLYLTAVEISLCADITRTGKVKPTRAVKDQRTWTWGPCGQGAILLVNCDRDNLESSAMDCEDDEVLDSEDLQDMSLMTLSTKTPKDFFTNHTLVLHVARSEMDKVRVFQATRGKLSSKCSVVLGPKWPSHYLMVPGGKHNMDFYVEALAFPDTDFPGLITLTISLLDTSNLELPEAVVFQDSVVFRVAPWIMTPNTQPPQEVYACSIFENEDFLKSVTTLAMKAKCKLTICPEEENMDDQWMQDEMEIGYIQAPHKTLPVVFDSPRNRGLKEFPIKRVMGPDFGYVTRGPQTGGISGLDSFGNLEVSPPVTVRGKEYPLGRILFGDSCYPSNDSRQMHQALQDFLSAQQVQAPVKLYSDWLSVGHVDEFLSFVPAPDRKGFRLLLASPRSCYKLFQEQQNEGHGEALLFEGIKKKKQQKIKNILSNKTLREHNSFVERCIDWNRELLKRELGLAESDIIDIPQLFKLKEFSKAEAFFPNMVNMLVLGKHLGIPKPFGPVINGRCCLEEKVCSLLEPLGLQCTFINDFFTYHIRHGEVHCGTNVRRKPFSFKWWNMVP
Description: complex purified by size exclusion chromatography; cryo-EM.

The target of assay [11] is T1, recombinant human PAD4. Description: cell-based or functional assay. The source holds these as a separate data set.
Assay [12] has as its target T1, recombinant human PAD4. Description: SPR 37 C, captured antibody, PAD4 analyte, 2 mM CaCl2; biphasic response, approximate KD; 2 mM CaCl2, 37 C; biphasic response. On the procedure:
as §1, with “SPR measurements for mAb20 and mAb 13 SPR were done in the presence of 2 mM CaCl₂). The remaining antibodies were tested in the presence of 1 mM CaCl₂).” left out
as §3

Some results are limits rather than exact numbers.

T1 sequence (Q9UM07 whole entry): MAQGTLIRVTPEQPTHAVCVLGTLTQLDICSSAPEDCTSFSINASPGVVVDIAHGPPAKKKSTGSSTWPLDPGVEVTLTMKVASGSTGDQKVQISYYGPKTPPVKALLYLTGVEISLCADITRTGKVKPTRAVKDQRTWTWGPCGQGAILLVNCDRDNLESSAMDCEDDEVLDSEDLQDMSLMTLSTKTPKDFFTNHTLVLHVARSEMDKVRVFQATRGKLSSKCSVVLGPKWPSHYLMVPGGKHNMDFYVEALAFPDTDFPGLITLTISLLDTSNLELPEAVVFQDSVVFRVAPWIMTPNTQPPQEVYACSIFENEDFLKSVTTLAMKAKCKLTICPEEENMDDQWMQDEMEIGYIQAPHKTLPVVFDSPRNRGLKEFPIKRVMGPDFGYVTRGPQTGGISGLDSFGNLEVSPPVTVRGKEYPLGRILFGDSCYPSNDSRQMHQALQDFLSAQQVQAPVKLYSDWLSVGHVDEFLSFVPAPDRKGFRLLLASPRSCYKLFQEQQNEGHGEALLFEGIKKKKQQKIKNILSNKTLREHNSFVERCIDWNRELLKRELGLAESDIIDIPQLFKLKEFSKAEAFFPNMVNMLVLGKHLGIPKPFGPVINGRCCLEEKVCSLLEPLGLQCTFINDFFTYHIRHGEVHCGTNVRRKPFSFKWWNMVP
T2 sequence (Q9Z183 whole entry): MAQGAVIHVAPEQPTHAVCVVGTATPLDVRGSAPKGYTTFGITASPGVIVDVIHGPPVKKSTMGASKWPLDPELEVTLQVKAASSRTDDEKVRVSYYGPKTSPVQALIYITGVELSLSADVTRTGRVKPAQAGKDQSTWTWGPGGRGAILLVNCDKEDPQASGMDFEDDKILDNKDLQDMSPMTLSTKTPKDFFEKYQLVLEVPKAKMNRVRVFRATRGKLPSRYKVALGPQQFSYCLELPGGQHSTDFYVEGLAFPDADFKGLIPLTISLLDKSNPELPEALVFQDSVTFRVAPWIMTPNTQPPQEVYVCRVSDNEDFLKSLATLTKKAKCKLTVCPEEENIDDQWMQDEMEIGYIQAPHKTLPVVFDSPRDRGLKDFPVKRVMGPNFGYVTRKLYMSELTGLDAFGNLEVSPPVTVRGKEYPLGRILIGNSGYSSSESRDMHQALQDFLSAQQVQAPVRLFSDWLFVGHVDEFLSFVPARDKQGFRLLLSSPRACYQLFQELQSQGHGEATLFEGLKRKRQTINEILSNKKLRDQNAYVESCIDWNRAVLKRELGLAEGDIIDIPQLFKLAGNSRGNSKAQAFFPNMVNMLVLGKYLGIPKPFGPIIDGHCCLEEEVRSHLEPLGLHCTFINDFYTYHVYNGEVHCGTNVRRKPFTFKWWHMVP

B1: hz20-1 (antibody, V domains shown)
VH: QVQLVQSGAEVKKPGASVKVSCKASGYTFTNYGISWVRQAPGQGLEWMGEIYPRSGNTYHNEKFKDRVTMTRDTSTSTVYMELSSLRSEDTAVYYCARSMITTRYWYFDVWGKGTTVTVSS
VL: DIVMTQSPDSLAVSLGERATINCRASESVDTYGNSFMHWYQQKPGQPPKLLIYLASNLESGVPDRFSGSGSGTDFTLTISSLQAEDVAVYYCQQNNEDPLTFGAGTKLELK
notes: light constant region not tied to this antibody
The Kd is the constant that tells how readily two partners part at equilibrium. The term koff denotes the rate constant with which the complex falls apart. The kon is the rate constant with which the complex forms. Regarding B1, in the assay with recombinant human PAD4 [1], the “IC50 (average), PAD4 citrullination of peptide …, RapidFire MS” value (“IC50 (average), PAD4 citrullination” for short) was determined as 77 nM. Also, in the assay with recombinant human PAD4 [2], the Kd amounted to 2.6 nM, the koff was found to be 0.00054 s⁻¹ and the kon came to 220000 M⁻¹ s⁻¹. Further, in the assay with recombinant human PAD4 [3], the Kd was found to be 2.7 nM and the koff is 0.00089 s⁻¹. The molecule also yielded an ECM Score (1 µM) in assay [4] of 1. For the same molecule, the kon with recombinant human PAD4 [5] came out at 550000 M⁻¹ s⁻¹.

B2: mumAb (antibody, mouse IgG1, kappa, V domains shown)
VH: EVQLQQPGAELVKPGASVKLSCKASDHTFTTYWIHWVKQRPGRGLEWIGRIGPNSGGSKYNEKFRTKATLTVDKPSSTAYMQLSSLKSEDSAVYFCAFSNYLDYLDYWGQGTTLTVSS
VL: DIVLTQSPASLAVSLGQRATISCKASQSVDHDGEGYMNWYQQKPGQPPKLLIYAASNLESGIPARFSGSGSGTDFTLNIHPVEEEDAATYYCQQINEDPYTFGGGTKLEIKR
notes: Formatted as mIgG1-D265A; also called anti-murine PAD4 mAb; mouse anti-mPAD4 mumAb antibody
B2: the “IC50, mPAD4 citrullination of peptide …, RapidFire MS, 50 nM mPAD4” value in the assay with mouse PAD4 [6] amounted to 13.2 nM. In the assay with mouse PAD4 [7], this molecule displayed a Kd of 0.7 nM, a koff of 0.0002 s⁻¹ and a kon of 290000 M⁻¹ s⁻¹.

B3: clone 13 (mAb13) (antibody, V domains shown)
VH: EVLLQQSGAELVKPGASVRLSCTSSDFNIKDHFIHWVKQRTEQGLEWIGRIDPEDDETKYAPKFQDKVTITADTSSNTAYLQLSSLTSEDTAVFYCAGYGNYEGAMDYWGQGTSVTVSS
VL: DIVLTQSPTSLGVSPGQRATLSCRASENVNNYGIGFMNWFQQKPGQPPKLLIYAASRRGSGVPARFSGSGSGTDFSLNIHPMEEDDTAMYFCQQSKEVPYTFGGGTNLEIR
notes: Murine anti-human PAD4 antibody; also called murine anti-human clone 13 antibody
For the molecule B3, the “IC50 (average), PAD4 citrullination” value in the assay with recombinant human PAD4 [1] worked out at 30 nM. The “IC50 of inhibition of PAD4 activity (% Activity against [AB Clone 13] nM)” value with recombinant human PAD4 [8] worked out at 10.1 nM. In assay [9], the Kd is less than 0.0244 nM, the koff was less than 1e-06 s⁻¹ and the kon was 41100 M⁻¹ s⁻¹. Besides, in the assay with recombinant human PAD4 [10], the Kd came to 3.2 nM, the koff came to 0.0011 s⁻¹ and the kon came to 350000 M⁻¹ s⁻¹.

B4: clone 13 Fab (Fab, V domains shown)
VH: EVLLQQSGAELVKPGASVRLSCTSSDFNIKDHFIHWVKQRTEQGLEWIGRIDPEDDETKYAPKFQDKVTITADTSSNTAYLQLSSLTSEDTAVFYCAGYGNYEGAMDYWGQGTSVTVSS
VL: DIVLTQSPTSLGVSPGQRATLSCRASENVNNYGIGFMNWFQQKPGQPPKLLIYAASRRGSGVPARFSGSGSGTDFSLNIHPMEEDDTAMYFCQQSKEVPYTFGGGTNLEIRR
notes: Heavy chain fragment with C-terminal His-tag; murine constant regions; also called Fab of clone 13; Fab13
With B4, the binding result in the assay with N-His-TVMV-PAD4 is recorded as “binds”.

B5: clone 20 (mAb20) (antibody, V domains shown)
VH: QVQLQQSGAELARPGASVKLSCKATGYTFTNYGISWVKQRTGQGLEWIGEIYPRSGNTYHNEKFKDKATLTADKSSSTAYMEFRSLTSEDSAVYFCARSMITTRYWYFDVWGKGTTVTVSS
VL: NIVLTQSPASLAVSLGQRATLSCRASESVDTYGNSFMHWYQQKPGQPPKLLIYLASNLESGVPARFSGSGSRTDFTLTIDPVEADDAATYYCQQNNEDPLTFGAGTKLELK
notes: Murine anti-human PAD4 antibody; also called murine anti-human clone 20 antibody
With B5, in the assay with recombinant human PAD4 [1], the “IC50 (average), PAD4 citrullination” value is 104 nM. For the same molecule, the “IC50 of inhibition of PAD4 activity (% Activity against [AB Clone 20] nM)” value with recombinant human PAD4 [11] was 39.6 nM. Also, in assay [9], the Kd was less than 1.71 nM, the koff is less than 1e-06 s⁻¹ and the kon worked out at 583 M⁻¹ s⁻¹. Also, in the assay with recombinant human PAD4 [10], the koff turned out to be 0.0062 s⁻¹ and the kon was found to be 43000 M⁻¹ s⁻¹. For the same molecule, in the assay with recombinant human PAD4 [12], the dissociation constant (Kd) was roughly 150 nM.
